This is an account of results in article PMC7588443 (Nature Communications, 2020).

Data set [1] addresses T1, BBRF2Δ (Epstein-Barr virus, UniProt P29882).
T1 construct: The cDNAs for full-length BBRF2 and BBRF2_17–278 were cloned into a modified pET28 vector (pSKB); made in house; host or cells: E. coli Rosetta (DE3)
The data set can be described thus: biochemical. Format: binding, human herpesvirus 4 strain M81. Here is the method: (§1) The biolayer interferometry (BLI) assay was performed using an eight-channel OctetRED biolayer interferometry system (FortéBio).
(§2) All experiments were carried out at 25 °C. Each measurement involved an 120 s baseline (with reaction buffer), followed by a 180 s (with protein or peptide) association phase, and a 180 s dissociation phase (with reaction buffer). Raw data were processed using Octet Data Analysis software 11.0 provided by Fortebio to derive the dissociation constant (KD). The results were presented in a graph using Origin (version 2019, OriginLab).

Data set [2] in a line: SEC-RALS, oligomeric state in solution. It counts as physicochemical. Conditions: Superdex 75 or 200, 20 mM HEPES pH 7.0, 600 mM NaCl, 10% glycerol, 1 mM DTT. As to the method: (§3) The entire experiment was performed in buffer C. The RALS data were analyzed by OMNISEC software.
The conditions of data set [3]: 6 μM protein, 3 mM liposomes (Golgi, ER, plasma membrane mixes), 60 min, room temperature; alone or complexed with full-length BBRF2.
Data set [4] concerns the molecule itself. In words: SEC-RALS; Superdex 75 or Superdex 200 Increase 10/300 GL; 25 μM of each purified protein mixed and incubated overnight at 4 °C; buffer C (20 mM HEPES pH 7.0, 600 mM NaCl, 10% glycerol, 1 mM DTT).
Data set [5] addresses T2, BBRF2Δ (BBRF2 17-278) (Epstein-Barr virus (human herpesvirus 4 …, UniProt P29882 17-278)).
T2 construct: source: E. coli Rosetta (DE3), purified (Ni-NTA, SEC)
T2 sequence: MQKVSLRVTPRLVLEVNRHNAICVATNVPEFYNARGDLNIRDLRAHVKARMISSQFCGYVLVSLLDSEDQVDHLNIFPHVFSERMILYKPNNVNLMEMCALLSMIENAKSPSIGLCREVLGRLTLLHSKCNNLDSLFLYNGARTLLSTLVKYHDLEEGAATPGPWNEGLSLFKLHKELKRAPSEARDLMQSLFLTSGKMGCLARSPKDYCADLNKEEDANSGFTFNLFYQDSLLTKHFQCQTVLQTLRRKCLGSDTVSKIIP
The data set is described as above. Conditions: both partners purified.

The subject of data set [6] is BBRF2Δ(F209K). In words: Biolayer interferometry (BLI) on BBRF2Δ(F209K). Particulars: compared to wild-type, pH 7.0, 25 °C. It counts as binding, human herpesvirus 4 strain M81. As to the method: as §1, §2
For orientation: In BLI a coated tip is dipped into the sample, and binding shifts an interference pattern.

The subject of data set [7] is BSRF1Δ. The data set can be described thus: SEC analysis, BBRF2Δ mutants with BSRF1Δ. It counts as binding, human herpesvirus 4 strain M81. Conditions: Superdex 75, 25 μM each, overnight at 4 °C, buffer C pH 7.0. As to the method:
as §3
For orientation: In gel filtration, larger molecules generally elute earlier.

For data set [8], the target named is T2, BBRF2Δ (BBRF2 17-278). The data set can be described thus: SEC. Particulars: both partners purified.
Data set [9] concerns the target T3, His6-tagged BBRF2Δ (Epstein-Barr virus (human herpesvirus 4 …, UniProt P29882 17-278)).
T3 construct: also called His-tagged BBRF2Δ; source: E. coli Rosetta (DE3), purified; not shown: His6, N-terminal, kept
T3 sequence: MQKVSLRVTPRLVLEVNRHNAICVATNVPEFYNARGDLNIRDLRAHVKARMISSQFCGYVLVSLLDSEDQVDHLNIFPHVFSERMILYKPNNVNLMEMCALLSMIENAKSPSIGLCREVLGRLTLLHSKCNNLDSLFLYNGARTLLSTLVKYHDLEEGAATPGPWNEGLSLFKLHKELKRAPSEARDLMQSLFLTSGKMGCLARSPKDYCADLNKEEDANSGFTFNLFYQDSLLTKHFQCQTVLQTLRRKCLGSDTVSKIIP
In words: BLI. Particulars: both partners purified.

The target in data set [10] is T4, His6-tagged BBRF2Δ (Epstein-Barr virus (human herpesvirus 4 strain M81)), P29882.
T4 chain: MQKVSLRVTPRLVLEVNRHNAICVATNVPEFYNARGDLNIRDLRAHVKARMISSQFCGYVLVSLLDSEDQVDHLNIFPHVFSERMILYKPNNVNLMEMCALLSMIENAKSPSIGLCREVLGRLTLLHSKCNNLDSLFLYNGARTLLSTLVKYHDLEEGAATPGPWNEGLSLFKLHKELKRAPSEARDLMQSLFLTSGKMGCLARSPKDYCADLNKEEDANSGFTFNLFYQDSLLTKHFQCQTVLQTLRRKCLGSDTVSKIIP
The data set can be described thus: BLI.

Data set [11] in a line: Solubility of recombinant BSRF1 constructs. It counts as physicochemical. Conditions: recombinant protein.

Where a SMILES comes first, the peptide text is derived from it.

`CC[C@H](C)[C@H](NC(=O)[C@H](CO)NC(=O)[C@H](CC(N)=O)NC(=O)[C@H](C)NC(=O)[C@H](CCC(N)=O)NC(=O)[C@@H](NC(=O)[C@H](C)NC(=O)[C@H](CC(C)C)NC(=O)[C@H](CC(C)C)NC(=O)[C@H](Cc1ccc(O)cc1)NC(=O)[C@@H](NC(=O)[C@H](CCC(N)=O)NC(=O)[C@H](CCCNC(=N)N)NC(=O)[C@H](CC(C)C)NC(=O)[C@H](CO)NC(=O)CNC(=O)[C@H](CCSC)NC(=O)[C@@H](NC(=O)[C@H](CCC(N)=O)NC(=O)[C@H](CCC(=O)O)NC(=O)[C@H](CC(N)=O)NC(=O)[C@H](CCCNC(=N)N)NC(=O)[C@H](CC(C)C)NC(=O)[C@H](CC(C)C)NC(=O)[C@H](CC(=O)O)NC(=O)CNC(=O)[C@@H](NC(=O)[C@H](CCC(N)=O)NC(=O)[C@@H](NC(=O)CNC(=O)[C@@H]1CCCN1C(=O)[C@@H]1CCCN1C(=O)[C@H](CC(C)C)NC(=O)CNC(=O)[C@H](CC(C)C)NC(=O)[C@@H](N)CC(=O)O)C(C)C)C(C)C)[C@@H](C)O)C(C)C)C(C)C)C(=O)N[C@H](C(=O)N[C@@H](CC(=O)O)C(=O)O)[C@@H](C)O` [P1] (H-DLGLPPGVQVGDLLRNEQTMGSLRQVYLLAVQANSITD-OH): in data set [1], the Kd was determined as 7.43 µM.

B1: BSRF1_(20-218) (domain or fragment)
chain: RNRYSQLPEEPETFECPDRWRAEIDLGLPPGVQVGDLLRNEQTMGSLRQVYLLAVQANSITDHLKRFDAVRVPESCRGVVEAQVAKLEAVRSVIWNTMISLAVSGIEMDENGLKALLDKQAGDSLALMEMEKVATALKMDETGAWAQEISAVVSSVTAPSASAPFINSAFEPEVPTPVLAPPPVVRQPEHSGPTELALT
notes: also called near-full-length BSRF1; source: E. coli, purified (as the BBRF2 constructs, 300 mM NaCl, no glycerol)
As for B1, the “oligomeric state in solution” value in data set [2] is listed as “dimerized in solution”. For the same molecule, the membrane binding result in data set [3] is listed as “did not exhibit a strong tendency for membrane binding”. The results for the “stoichiometry N” value in data set [4] and in data set [5] were 2 and 1, respectively.

B2: BBRF2: EBV tegument protein, full-length (protein)
chain: MASGKHHQPGGTRSLTMQKVSLRVTPRLVLEVNRHNAICVATNVPEFYNARGDLNIRDLRAHVKARMISSQFCGYVLVSLLDSEDQVDHLNIFPHVFSERMILYKPNNVNLMEMCALLSMIENAKSPSIGLCREVLGRLTLLHSKCNNLDSLFLYNGARTLLSTLVKYHDLEEGAATPGPWNEGLSLFKLHKELKRAPSEARDLMQSLFLTSGKMGCLARSPKDYCADLNKEEDANSGFTFNLFYQDSLLTKHFQCQTVLQTLRRKCLGSDTVSKIIP
In the case of B2, the “oligomeric state in solution” value in data set [2] is “monomer in solution”.

B3: BBRF2Δ: N-terminally truncated version with deletion of residues 1−16 (protein)
chain: MQKVSLRVTPRLVLEVNRHNAICVATNVPEFYNARGDLNIRDLRAHVKARMISSQFCGYVLVSLLDSEDQVDHLNIFPHVFSERMILYKPNNVNLMEMCALLSMIENAKSPSIGLCREVLGRLTLLHSKCNNLDSLFLYNGARTLLSTLVKYHDLEEGAATPGPWNEGLSLFKLHKELKRAPSEARDLMQSLFLTSGKMGCLARSPKDYCADLNKEEDANSGFTFNLFYQDSLLTKHFQCQTVLQTLRRKCLGSDTVSKIIP
Turning to B3, the “oligomeric state in solution” value in data set [2] is “monomeric both in solution and in the asymmetric unit of the crystal”.

B4: BBRF2Δ(F209K): BBRF2Δ with Phe209 mutated to lysine (protein)
chain: MQKVSLRVTPRLVLEVNRHNAICVATNVPEFYNARGDLNIRDLRAHVKARMISSQFCGYVLVSLLDSEDQVDHLNIFPHVFSERMILYKPNNVNLMEMCALLSMIENAKSPSIGLCREVLGRLTLLHSKCNNLDSLFLYNGARTLLSTLVKYHDLEEGAATPGPWNEGLSLFKLHKELKRAPSEARDLMQSLKLTSGKMGCLARSPKDYCADLNKEEDANSGFTFNLFYQDSLLTKHFQCQTVLQTLRRKCLGSDTVSKIIP
In the case of B4, in data set [6], the “binding affinity of BBRF2Δ(F209K) with BSRF1Δ, in words” value is “moderately reduced binding affinity”. Also, the “complex formation with BSRF1Δ” value in data set [7] is given as “maintained the binding for BSRF1Δ”.

B5: BBRF2Δ(M205K): BBRF2Δ with Met205 mutated to lysine (protein)
chain: MQKVSLRVTPRLVLEVNRHNAICVATNVPEFYNARGDLNIRDLRAHVKARMISSQFCGYVLVSLLDSEDQVDHLNIFPHVFSERMILYKPNNVNLMEMCALLSMIENAKSPSIGLCREVLGRLTLLHSKCNNLDSLFLYNGARTLLSTLVKYHDLEEGAATPGPWNEGLSLFKLHKELKRAPSEARDLKQSLFLTSGKMGCLARSPKDYCADLNKEEDANSGFTFNLFYQDSLLTKHFQCQTVLQTLRRKCLGSDTVSKIIP
In the case of B5, in data set [7], the “complex formation with BSRF1Δ” value was “did not form a complex with BSRF1Δ”.

B6: BSRF1Δ with Cys95 mutated to serine (domain or fragment)
chain: ECPDRWRAEIDLGLPPGVQVGDLLRNEQTMGSLRQVYLLAVQANSITDHLKRFDAVRVPESSRGVVEAQVAKLEAVRSVIWNTMISLAVSGIEMDENGLKALLDKQAGDSLALMEMEKVATALKMD
notes: also called BSRF1Δ(C95S); source: E. coli, purified
B6: the binding result in data set [8] is listed as “binds”.

B7: BSRF1Δ(N59K) (domain or fragment)
chain: ECPDRWRAEIDLGLPPGVQVGDLLRKEQTMGSLRQVYLLAVQANSITDHLKRFDAVRVPESCRGVVEAQVAKLEAVRSVIWNTMISLAVSGIEMDENGLKALLDKQAGDSLALMEMEKVATALKMD
notes: source: E. coli, purified
Regarding B7, the binding result in [8] and in data set [9] was “binds” each time.

B8: BSRF1Δ(M63D) (domain or fragment)
chain: ECPDRWRAEIDLGLPPGVQVGDLLRNEQTDGSLRQVYLLAVQANSITDHLKRFDAVRVPESCRGVVEAQVAKLEAVRSVIWNTMISLAVSGIEMDENGLKALLDKQAGDSLALMEMEKVATALKMD
notes: source: E. coli, purified
Turning to B8, the binding result in [8] and in data set [9] was “binds” throughout.
Consider DLGLPPGVQVGDLLRNEQTMGSLRQVYLLAVQANSITD (modifications not checked) [BSRF1-derived peptide 1], for which the Kd in [10] worked out at 7.4 µM.

B9: BSRF1: Full-length BSRF1 (residues 1–218), EBV tegument protein (protein)
chain: MAFYLPDWSCCGLWLFGRPRNRYSQLPEEPETFECPDRWRAEIDLGLPPGVQVGDLLRNEQTMGSLRQVYLLAVQANSITDHLKRFDAVRVPESCRGVVEAQVAKLEAVRSVIWNTMISLAVSGIEMDENGLKALLDKQAGDSLALMEMEKVATALKMDETGAWAQEISAVVSSVTAPSASAPFINSAFEPEVPTPVLAPPPVVRQPEHSGPTELALT
modifications: left off: Flag, end not stated, kept
notes: Full-length BSRF1 (residues 1–218), EBV tegument protein
For B9, the solubility entry in data set [11] was “insoluble”.

One may read the Kd as a measure of binding affinity in units of concentration. A high value points to weaker binding. A word on the stoichiometry N: it is a count of units in the complex or per binding partner.
